Test results from patent publication US20120039908A1.

target: T1, S100b protein (Cat. No. 559290, Calbiochem); test: ELISA, S100b coated on plate; reference baseline bioreactor R39
T1 sequence (P04271 2-92, species assumed, looked up): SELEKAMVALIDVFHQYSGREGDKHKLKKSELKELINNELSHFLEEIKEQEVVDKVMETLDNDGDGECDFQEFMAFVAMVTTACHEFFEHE

Chain of RAGE-Fc fusion protein from bioreactor R80 (CD CHO, 2-deoxy-D-glucose 1 g/L at day 7; 9), Day 14 (chain): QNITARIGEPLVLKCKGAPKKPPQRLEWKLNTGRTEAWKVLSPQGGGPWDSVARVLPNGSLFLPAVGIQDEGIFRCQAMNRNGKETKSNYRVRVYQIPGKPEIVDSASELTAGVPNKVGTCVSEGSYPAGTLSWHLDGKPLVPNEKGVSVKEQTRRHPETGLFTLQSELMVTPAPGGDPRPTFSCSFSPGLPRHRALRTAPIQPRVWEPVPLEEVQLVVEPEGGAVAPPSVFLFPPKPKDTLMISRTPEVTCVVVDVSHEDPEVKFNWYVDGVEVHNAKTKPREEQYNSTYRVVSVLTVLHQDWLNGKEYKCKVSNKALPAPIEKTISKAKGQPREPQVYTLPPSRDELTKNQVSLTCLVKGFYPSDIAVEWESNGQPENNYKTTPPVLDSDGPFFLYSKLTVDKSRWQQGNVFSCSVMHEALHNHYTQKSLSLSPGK
Chain of RAGE-Fc fusion protein from bioreactor R66 (CD OptiCHO lipid-free, 2-deoxy-D-glucose 1 g/L at day 9), Day 12 (chain): as above
Chain of RAGE-Fc fusion protein from bioreactor R79 (Ex Cell 325 PF CHO, 2-deoxy-D-glucose 1 g/L at day 7; 9), Day 12 (chain): as above
Chain of RAGE-Fc fusion protein from bioreactor R53 (2-deoxy-D-glucose 1 g/L at day 9; 11), Day 10 (chain): as above
Chain of RAGE-Fc fusion protein from bioreactor R53 (2-deoxy-D-glucose 1 g/L at day 9; 11), Day 12 (chain): as above
Chain of RAGE-Fc fusion protein from bioreactor R39 (control, no 2-deoxy-D-glucose), Day 12 (chain): as above
Chain of RAGE-Fc fusion protein from bioreactor R66 (CD OptiCHO lipid-free, 2-deoxy-D-glucose 1 g/L at day 9), Day 14 (chain): as above
Chain of RAGE-Fc fusion protein from bioreactor R80 (CD CHO, 2-deoxy-D-glucose 1 g/L at day 7; 9), Day 12 (chain): as above
Chain of RAGE-Fc fusion protein from bioreactor R79 (Ex Cell 325 PF CHO, 2-deoxy-D-glucose 1 g/L at day 7; 9), Day 13 (chain): as above

Substance	Relative binding compared to control	fold increase in S100b binding activity compared to baseline bioreactor R39	fold S100b binding activity compared to control bioreactor R39
RAGE-Fc fusion protein from bioreactor R53 (2-deoxy-D-glucose 1 g/L at day 9; 11), Day 10	296%		
RAGE-Fc fusion protein from bioreactor R66 (CD OptiCHO lipid-free, 2-deoxy-D-glucose 1 g/L at day 9), Day 12	3250%	32 fold	
RAGE-Fc fusion protein from bioreactor R66 (CD OptiCHO lipid-free, 2-deoxy-D-glucose 1 g/L at day 9), Day 14	3520%		
RAGE-Fc fusion protein from bioreactor R79 (Ex Cell 325 PF CHO, 2-deoxy-D-glucose 1 g/L at day 7; 9), Day 12	527%	5 fold	
RAGE-Fc fusion protein from bioreactor R79 (Ex Cell 325 PF CHO, 2-deoxy-D-glucose 1 g/L at day 7; 9), Day 13	2960%		
RAGE-Fc fusion protein from bioreactor R80 (CD CHO, 2-deoxy-D-glucose 1 g/L at day 7; 9), Day 14	8080%		80 fold

The next lines start with the values.

Relative binding compared to control	fold increase in S100b binding activity compared to baseline bioreactor R39	fold S100b binding activity compared to control bioreactor R39	Substance
100%			RAGE-Fc fusion protein from bioreactor R39 (control, no 2-deoxy-D-glucose), Day 12
1520%			RAGE-Fc fusion protein from bioreactor R53 (2-deoxy-D-glucose 1 g/L at day 9; 11), Day 12
1630%			RAGE-Fc fusion protein from bioreactor R80 (CD CHO, 2-deoxy-D-glucose 1 g/L at day 7; 9), Day 12
